Laboratory results from patent US20210395718A1, “NOVEL KETOSE 3-EPIMERASE” (NATIONAL UNIVERSITY CORPORATION KAGAWA UNIVERSITY, priority 2018, published 2021).

How the values were obtained:
[1] = Thermal stability: residual activity after incubation at 60° C. for one hour; type: biochemical; conditions: crude recombinant enzyme; after incubation at 60° C. for 1 hour
Method: Thermal stability of the enzyme was investigated by measuring the activity of the enzyme after incubation at 60° C. for one hour and finding its relative activity supposing that the activity at 60° C. under the reaction conditions (10 minutes) used for determining the optimum temperature in the above 2 shown in Table 2 was 100. As heat treatment conditions, the crude enzyme solution, a buffer (50 mM tris-HCl, pH 7.5), and 2 mM MgCl2 were used to give a total amount of 200 p1 and after retaining at 60° C. for one hour, the reaction mixture was cooled for 10 minutes in ice water. The residual enzyme activity was then measured by the conventional method.
The activity of each of the present enzyme (crude recombinant enzyme) and the crude enzyme of the control enzyme after incubation at 60° C. for 1 hour was measured and a relative activity of it was determined supposing that the activity at 60° C. under the reaction conditions (10 minutes) for determining the optimum temperature in the above 2 shown in Table 2 is 100. The relative activity was used as a heat resistance index of the enzyme. As heat treatment conditions, the crude enzyme solution, a buffer (50 mM tris-HCl, pH 7.5), and 2 mM MgCl2 were used to give a total amount of 200 p1 and after retaining at 60° C. for one hour, the reaction mixture was cooled for 10 minutes in ice water. The residual enzyme activity was measured by the conventional method.

[2] = Ketose 3-epimerase activity ratio (T70/T50) at reaction temperature of 70° C. to 50° C.; type: biochemical; conditions: crude recombinant enzyme; ratio of activity at 70° C. to activity at 50° C., 10 min reaction
Method: An enzyme having higher heat resistance than an amino acid substitution-free wild type enzyme can be obtained by introducing mutation into the gene of the ketose 3-epimerase of the present invention and substituting the corresponding amino acid residue with another amino acid residue by a site-directed mutagenesis operation to prepare various amino acid-substituted mutants. The heat resistance is evaluated by two indices, that is, a ketose 3-epimerase activity ratio (T70/T50) at the reaction temperatures of 70° C. to 50° C. and a residual activity after incubation at 60° C. for one hour.
Heat resistance of the present enzyme (crude recombinant enzyme) and the crude enzyme of the control enzyme was investigated by measuring an activity at 70° C. and an activity at 50° C. under the reaction conditions (10 minutes) used for determining the optimum temperature in the above 2 shown in Table 2 and finding their ratio (T70/T50).

| Molecule | Residual activity (%) [1] | T70/T50 [2] |
| --- | --- | --- |
| Ketose 3-epimerase mutant 7: amino acid-substituted mutant of SEQ ID NO: 1 (protein, Arthrobacter histidinolovorans) MKIGCHGLVWTGRFDAEGIRYSVQKTKEAGFDLIEFPLMDPFSFDVATAKSALAEHGLSVSASLGLSEATDVSSEDPAIVKAGEELLNRALDVLAELGATDFCGVIYSAMKKYMEPATEQGLSNSKAAVGRVVDRAAGLGINVSLEVVNRYETNVLNTGRQALSYLSDVKRPNLGVHLDTYHMNIEESDMFSPVLDTAEVLKYVHIGESHRGYLGTGSVDFDNFFKALGRIGYDGPVVFESFSSAVVAPDLSRMLGIWRNLWADNEELGAHANAFIRDKLTAIKTIELH | 83.1% | 2.03 |
| Ketose 3-epimerase mutant 17: amino acid-substituted mutant of SEQ ID NO: 1 (protein, Arthrobacter histidinolovorans) MKIGCHGLVWTGRFDAEGIRYSVQKTKEAGFDLIEFPLMDPFSFDVATAKSALAEHGLTASASLGLSEATDVSSEDPAIVKAGEELLNRALDVLAELGATEFCGVIYSAMKKYMEPATEQGLSNSKAAVGRVVDRAAGLGINVSLEVVNRYETNVLNTGRQALSYLSDVKRPNLGVHLDTYHMNIEESDMFSPVLDTAEVLKYVHIGESHRGYLGTGSVDFDNFFKALGRIGYDGPVVFESFSSAVVAPDLSRMLGIWRNLWADNEELGAHANAFIRDKLTAIKTIELH | 62.3% | 1.89 |
| Ketose 3-epimerase mutant 9: amino acid-substituted mutant of SEQ ID NO: 1 (protein, Arthrobacter histidinolovorans) MKIGCHGLVWTGRFDAEGIRYSVQKTKEAGFDLIEFPLMDPFSFDVATAKSALAEHGLSVSASLGLSEATDVSSEDPAIVKAGEELLNRALDVLAELGATDFCGVIYSAMKKYMEPATEQGLSNSKAAVGRVVDRAAGLGINVSLEVVNRYETNVLNTGRQALSYLSDVKRPNLGVHLDTYHMNIEESDMFSPVLDTAEALKYVHIGESHRGYLGTGSVDFDNFFKALGRIGYDGPVVFESFSSAVVAPDLSRMLGIWRNLWADNEELGAHANAFIRDKLTAIKTIELH | 65.6% | 2.01 |
| Ketose 3-epimerase mutant 13: amino acid-substituted mutant of SEQ ID NO: 1 (protein, Arthrobacter histidinolovorans) MKIGCHGLVWTGRFDAEGIRYSVQKTKEAGFDLIEFPLMDPFSFDVATAKSALAEHGLTASASLGLSEATDVSSEDPAIVKAGEELLNRALDVLAELGATDFCGVIYSAMKKYMEPATEQGLSNSKAAIGRVVDRAAGLGINVSLEVVNRYETNVLNTGRQALSYLSDVKRPNLGVHLDTYHMNIEESDMFSPVLDTAEVLKYVHIGESHRGYLGTGSVDFDNFFKALGRIGYDGPVVFESFSSAVVAPDLSRMLGIWRNLWADNEELGAHANAFIRDKLTAIKTIELH | 83.7% | 1.94 |
| Ketose 3-epimerase mutant 16: amino acid-substituted mutant of SEQ ID NO: 1 (protein, Arthrobacter histidinolovorans) MKIGCHGLVWTGRFDAEGIRYSVQKTKEAGFDLIEFPLMDPFSFDVATAKSALAEHGLSVSASLGLSEATDVSSEDPAIVKAGEELLNRALDVLAELGATEFCGVIYSAMKKYMEPATEQGLSNSKAAIGRVVDRAAGLGINVSLEVVNRYETNVLNTGRQALSYLSDVKRPNLGVHLDTYHMNIEESDMFSPVLDTAEALKYVHIGESHRGYLGTGSVDFDNFFKALGRIGYDGPVVFESFSSAVVAPDLSRMLGIWRNLWADNEELGAHANAFIRDKLTAIKTIELH | 54.0% | 1.89 |
| Ketose 3-epimerase mutant 8: amino acid-substituted mutant of SEQ ID NO: 1 (protein, Arthrobacter histidinolovorans) MKIGCHGLVWTGRFDAEGIRYSVQKTKEAGFDLIEFPLMDPFSFDVATAKSALAEHGLTASASLGLSEATDVSSEDPAIVKAGEELLNRALDVLAELGATDFCGVIYSAMKKYMEPATEQGLSNSKAAIGRVVDRAAGLGINVSLEVVNRYETNVLNTGRQALSYLSDVKRPNLGVHLDTYHMNIEESDMFSPVLDTAEVLKYVHIGESHRGYLGTGNVDFDNFFKALGRIGYDGPVVFESFSSAVVAPDLSRMLGIWRNLWADNEELGAHANAFIRDKLTAIKTIELH | 115.3% | 2.03 |
| Ketose 3-epimerase mutant 12: amino acid-substituted mutant of SEQ ID NO: 1 (protein, Arthrobacter histidinolovorans) MKIGCHGLVWTGRFDAEGIRYSVQKTKEAGFDLIEFPLMDPFSFDVATAKSALAEHGLTASASLGLSEATDVSSEDPAIVKAGEELLNRALDVLAELGATDFCGVIYSAMKKYMEPATEQGLSNSKAAIGRVVDRAAGLGINVSLEVVNRYETNVLNTGRQALSYLSDVKRPNLGVHLDTYHMNIEESDMFSPVLDTAEALKYVHIGESHRGYLGTGNVDFDNFFKALGRIGYDGPVVFESFSSAVVAPDLSRMLGIWRNLWADNEELGAHANAFIRDKLTAIKTIELH | 90.5% | 1.94 |
| Ketose 3-epimerase mutant 14: amino acid-substituted mutant of SEQ ID NO: 1 (protein, Arthrobacter histidinolovorans) MKIGCHGLVWTGRFDAEGIRYSVQKTKEAGFDLIEFPLMDPFSFDVATAKSALAEHGLTASASLGLSEATDVSSEDPAIVKAGEELLNRALDVLAELGATDFCGVIYSAMKKYMEPATEQGLSNSKAAVGRVVDRAAGLGINVSLEVVNRYETNVLNTGRQALSYLSDVKRPNLGVHLDTYHMNIEESDMFSPVLDTAEVLKYVHIGESHRGYLGTGSVDFDNFFKALGRIGYDGPVVFESFSSAVVAPDLSRMLGIWRNLWADNEELGAHANAFIRDKLTAIKTIELH | 79.1% | 1.91 |
| Ketose 3-epimerase mutant 11: amino acid-substituted mutant of SEQ ID NO: 1 (protein, Arthrobacter histidinolovorans) MKIGCHGLVWTGRFDAEGIRYSVQKTKEAGFDLIEFPLMDPFSFDVATAKSALAEHGLTASASLGLSEATDVSSEDPAIVKAGEELLNRALDVLAELGATDFCGVIYSAMKKYMEPATEQGLSNSKAAIGRVVDRAAGLGINVSLEVVNRYETNVLNTGRQALSYLSDVKRPNLGVHLDTYHMNIEESDMFSPVLDTAEALKYVHIGESHRGYLGTGSVDFDNFFKALGRIGYDGPVVFESFSSAVVAPDLSRMLGIWRNLWADNEELGAHANAFIRDKLTAIKTIELH | 68.6% | 1.95 |
| Ketose 3-epimerase mutant 10: amino acid-substituted mutant of SEQ ID NO: 1 (protein, Arthrobacter histidinolovorans) MKIGCHGLVWTGRFDAEGIRYSVQKTKEAGFDLIEFPLMDPFSFDVATAKSALAEHGLSVSASLGLSEATDVSSEDPAIVKAGEELLNRALDVLAELGATDFCGVIYSAMKKYMEPATEQGLSNSKAAVGRVVDRAAGLGINVSLEVVNRYETNVLNTGRQALSYLSDVKRPNLGVHLDTYHMNIEESDMFSPVLDTAEALKYVHIGESHRGYLGTGNVDFDNFFKALGRIGYDGPVVFESFSSAVVAPDLSRMLGIWRNLWADNEELGAHANAFIRDKLTAIKTIELH | 79.5% | 1.98 |
| Ketose 3-epimerase mutant 15: amino acid-substituted mutant of SEQ ID NO: 1 (protein, Arthrobacter histidinolovorans) MKIGCHGLVWTGRFDAEGIRYSVQKTKEAGFDLIEFPLMDPFSFDVATAKSALAEHGLSVSASLGLSEATDVSSEDPAIVKAGEELLNRALDVLAELGATEFCGVIYSAMKKYMEPATEQGLSNSKAAVGRVVDRAAGLGINVSLEVVNRYETNVLNTGRQALSYLSDVKRPNLGVHLDTYHMNIEESDMFSPVLDTAEVLKYVHIGESHRGYLGTGSVDFDNFFKALGRIGYDGPVVFESFSSAVVAPDLSRMLGIWRNLWADNEELGAHANAFIRDKLTAIKTIELH | 89.3% | 1.90 |
